The data set concerns OmpRAc (phosphorylated by EnvZAcC) (Acidovorax citrulli xjL12 (group II)). Nature of the data set: MST. The note with it: EMSA: 10 mM Tris-HCl pH 7.4, 50 mM KCl, 50 mM MgCl2, 5% glycerol, room temperature 20 min, 50 ng probe in 20 uL, MST: 50 mM Tris-HCl pH 7.4, 150 mM NaCl. For orientation: In EMSA bound probe runs differently from free probe, usually more slowly.

For orientation: Kd means the equilibrium constant for the complex coming apart. A high value points to lower affinity.

In turn, PhrpG Cy5 probe (MST) yielded a Kd of 5.72 µM.
